{
  "source": "patent US20120282271",
  "key": {"[1]": {"test_system": "pro-MSP (single-chain recombinant human pro-macrophage-stimulating protein, C672A)"}, "[2]": {"test_system": "pro-MSP-R483E (cleavage-site mutant of pro-MSP)", "sequence (chain, as listed by the source R483E)": "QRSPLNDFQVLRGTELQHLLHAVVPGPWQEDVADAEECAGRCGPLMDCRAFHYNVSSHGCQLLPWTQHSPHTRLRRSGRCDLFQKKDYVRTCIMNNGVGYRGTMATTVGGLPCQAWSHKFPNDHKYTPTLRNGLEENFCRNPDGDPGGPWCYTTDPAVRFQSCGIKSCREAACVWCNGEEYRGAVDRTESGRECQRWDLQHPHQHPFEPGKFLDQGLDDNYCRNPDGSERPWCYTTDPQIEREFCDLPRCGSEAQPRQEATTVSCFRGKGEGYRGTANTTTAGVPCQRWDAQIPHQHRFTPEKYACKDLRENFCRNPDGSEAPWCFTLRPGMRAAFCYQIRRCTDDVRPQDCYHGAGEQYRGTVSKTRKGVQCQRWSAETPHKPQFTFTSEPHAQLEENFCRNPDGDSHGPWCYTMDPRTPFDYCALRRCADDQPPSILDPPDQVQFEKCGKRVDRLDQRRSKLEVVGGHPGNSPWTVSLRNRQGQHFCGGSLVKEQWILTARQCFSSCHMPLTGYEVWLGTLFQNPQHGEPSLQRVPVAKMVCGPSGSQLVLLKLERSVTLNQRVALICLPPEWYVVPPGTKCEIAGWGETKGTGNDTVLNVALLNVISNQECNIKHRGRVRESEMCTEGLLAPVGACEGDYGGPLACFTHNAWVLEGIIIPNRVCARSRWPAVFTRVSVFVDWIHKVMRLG"}},
  "data": [
    {"substance": "extracellular domain of human recombinant hepsin", "values": [
      {"measurement": "proteolytic activation of pro-MSP, gel-mobility shift on reducing SDS-PAGE (hepsin 1.25-10 nM, 37° C.)", "setting": "[1]", "result": "Hepsin activated pro-MSP in a dose-dependent and time dependent manner"},
      {"measurement": "proteolytic processing by hepsin, SDS-PAGE", "setting": "[2]", "result": "Hepsin did not cleave this mutant pro-MSP despite prolonged incubation (24 hours)"}
    ]}
  ]
}
